Data taken from patent US20230242623A1 (GEORGIA TECH RESEARCH, published 2023).

B1: 3B3 (antibody, V domains shown)
VH: DVQLQESGPGLVKPSQSLSLTCTVTGYSITSDYAWIWIRQFPGNKLEWMAYISYSGTTSYNPSLKSRISITRDTSKNQFFLQLNSVTTEDTATYYCAGRRGAYYGNYEEDYWGRGTSVTVSS
VL: QIVLTQSPAIMSASPGEKVTMTCSSSSIVNYMYWYQQKPGSSPRLLIYDTSTLASGVPVRFSGSGSGTSYSLTISRMEAEDAATYYCQQWSSYPYTFGGGTKLEIK
notes: also called 3B3 clone; 1-3B3
B2: 3F2 (antibody, V domains shown)
VH: QVQLQQPGAELVKPGASVKMSCKASGYTFTSYSLHWVKQTPGQGLEWIGAVYPGNDDTSYNQNFKGKATLTADKSSNTAYMQLSSLTSEDSAVYYCARDGYFAMDYWGQGTSVTVSS
VL: DIVMSQSPSSLAVSVGEKVTMSCKSSQSLLYSTNQKNYLAWYQQKPGQSPKLLIYWASTRESGVPDRFTGSGSGTDFTLTISSVKAEDLAVYYCHQYYSYPWTFGGGTKLEIK
notes: also called 1-3F2
B3: 3H2 (antibody, V domains shown)
VH: QVQLQQSGAELMKPGASVKISCKATGNTFSNYWIEWVKQRPGHGLEWIGEILPGSDSTNYNEKFKGKATFTADTSSKTAYMQLSSLTSEDSAVYYCARNRFYWYFDVWGAGTTVTVSS
VL: DVVMTQTPLSLPVSLGDQASISCRSSQSLVHSNGNTYLHWYLQKPGQSPKLLIYKVSNRFSGVPDRFSGSGSGTDFTLKISRVEAEDLGIYFCSQSTHVPWTFGGGTKLEIK
notes: also called 1-3H2
B4: 3A2 (antibody, V domains shown)
VH: QVTLKESGPGILQPSQTLSLTCSFSGFSLSTSGMGVSWIRQPSGKGLEWLAHIYWDDDKRYNPSLKSRLTISKDTSSSQVFLKITSVDTVDTATYYCARRGPLITTDGTFDVWGAGTTVTVSS
VL: DIVMTQSRKFMSTSVGDRVSITCKASQDVGTSVAWYQQKPGQSPKLLIYWASTRHTGVPDRFTGSGSGTDFTLTINSVQSEDLADYFCQQYSSYPYTFGGGTKLEMK
notes: also called 3A2 clone
B5: 3F5 (antibody, V domains shown)
VH: B4 VH
VL: B4 VL
notes: also called 1-3F5
B6: 3A7 (antibody, V domains shown)
VH: B4 VH
VL: B4 VL
notes: also called 3A7 clone

Each binder was assayed against T1, SARS-CoV-2 RBD (RBD-luciferase antigen of the split-luciferase reporter) (SARS-CoV-2, UniProt P0DTC2 319-541) (assay: split-luciferase reporter of RBD-hACE2 interaction; antibody against hACE2).
T1 construct: domain: RBD

| Binder | % inhibition of RBD-hACE2 binding [%] |
| --- | --- |
| B1 | > 80 |
| B2 | > 80 |
| B3 | > 80 |
| B4 | > 80 |
| B5 | > 80 |
| B6 | > 80 |
